Experiments:
[1] = biological target: T1, human THAP1 (THanatos-Associated-Protein-1), full length (human, UniProt Q9NVV9 1-213); experiment: yeast two-hybrid, both orientations
T1 construct: these tags are not written into the chain; also called hTHAP1; THAP1 wild type
T1 sequence: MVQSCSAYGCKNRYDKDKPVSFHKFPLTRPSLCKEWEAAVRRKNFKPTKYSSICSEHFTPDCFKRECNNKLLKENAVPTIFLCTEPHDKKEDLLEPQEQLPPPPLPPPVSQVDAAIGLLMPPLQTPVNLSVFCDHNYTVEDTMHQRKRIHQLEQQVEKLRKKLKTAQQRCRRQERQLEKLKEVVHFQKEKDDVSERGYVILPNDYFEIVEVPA
Method: To identify potential protein partners of THAP1, screening of the two-hybrid HEVEC cDNA library was performed using as a bait the human THAP1 full length cDNA inserted into the […] two-hybrid system 3 vector pGBKT7 (Clontech). Briefly, the full-length coding region of THAP1 was amplified by PCR from HEVEC cDNA with primers 2HMR10 (5′-[…]-3′) (SEQ ID NO: 187) and 2HMR9 (5′-[…]-3′) (SEQ ID NO: 188), digested with EcoRI and BamHI, and cloned in frame downstream of the Gal4 Binding Domain (Gal4-BD) in pGBKT7 vector to generate pGBKT7-THAP1. pGBKT7-THAP1 was then cotransformed with the pGAD424-HEVEC cDNA library in yeast strain AH109 (Clontech). 1.5×10⁷ yeast transformants were screened and positive protein interactions were selected by His and Ade double auxotrophy according to manufacturer's instructions ([…] two-hybrid system 3, Clontech). The plates were incubated at 30° C. for 5 days. Plasmid DNA was extracted from these positive colonies and used to verify the specificity of the interaction by cotransformation in AH109 with pGBKT7-THAP1 or control baits pGBKT7, pGBKT7-lamin and pGBKT7-hevin. […] Positive interaction between THAP1 and Par4 was confirmed using full length Par4 bait (pGBKT-Par4) and prey (pGADT7-Par4). […]

[2] = biological target: T2, THAP1ΔQRCRR mutant (deletion of residues 168-172) (human, UniProt Q9NVV9 1-213); experiment: yeast two-hybrid and in vivo interaction assay
T2 sequence: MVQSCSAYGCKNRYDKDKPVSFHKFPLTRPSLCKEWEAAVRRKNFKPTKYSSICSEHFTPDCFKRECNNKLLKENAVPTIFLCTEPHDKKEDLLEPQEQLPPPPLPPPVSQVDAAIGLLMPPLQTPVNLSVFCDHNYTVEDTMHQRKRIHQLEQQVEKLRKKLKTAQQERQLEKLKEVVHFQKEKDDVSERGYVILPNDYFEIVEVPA

[3] = biological target: T3, THAP1-N1 deletion mutant (amino acids 1-90) (human, UniProt Q9NVV9 1-90); experiment: in vivo interaction test: GFP-THAP1 mutant and myc-Par4DD co-expressed in primary human endothelial cells, confocal immunofluorescence
T3 construct: Gal4 fusion, in vitro translation product or GFP fusion according to assay; also called zinc finger domain of THAP1
T3 sequence: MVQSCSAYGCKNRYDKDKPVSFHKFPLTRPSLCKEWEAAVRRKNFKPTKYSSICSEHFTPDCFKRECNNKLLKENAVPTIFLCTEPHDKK
Text: (§1) To provide further evidence for a physiological interaction between THAP1 and Par4 in vivo interactions between THAP1 and PAR4 were investigated. For that purpose, confocal immunofluorescence microscopy was used to analyze the subcellular localization of epitope-tagged Par4DD in primary human endothelial cells transiently cotransfected with pEF-mycPar4DD eukaryotic expression vector and GFP or GFP-THAP1 expression vectors (pEGFP.C2 and pEGFP.C2-THAP1, respectively). To generate pEF-mycPar4DD, mycPar4DD (amino acids 250-342) was amplified by PCR using pGBKT7-Par4DD as template, with primers myc.BD7 (5′-[…]-3′) (SEQ ID NO: 195) and Par4.9 (5′-[…]-3′) (SEQ ID NO: 196), and cloned into the XbaI and NotI sites of the pEF-BOS expression vector (Mizushima and Nagata, Nucleic Acids Research, 18:5322, 1990). Primary human endothelial cells from umbilical vein (HUVEC, PromoCell, Heidelberg, Germany) were grown in complete ECGM medium (PromoCell, Heidelberg, Germany), plated on coverslips and transiently transfected in RPMI medium using GeneJammer transfection reagent according to manufacturer instructions (Stratagene, La Jolla, Calif., USA). Cells co-transfected with pEF-mycPar4DD and GFP-tagged expression constructs were allowed to grow for 24 h to 48 h on coverslips. Cells were washed twice with PBS, fixed for 15 min at room temperature in PBS containing 3.7% formaldehyde, and washed again with PBS prior to neutralization with 50 mM NH₄Cl in PBS for 5 min at room temperature. Following one more PBS wash, cells were permeabilized 5 min at room temperature in PBS containing 0.1% Triton-X100, and washed again with PBS. Permeabilized cells were then blocked with PBS-BSA (PBS with 1% bovine serum albumin) for 10′ and then incubated 2 hr at room temperature with mouse monoclonal antibody anti-myc epitope (mouse IgG1, 1/200, Clontech) diluted in PBS-BSA. Cells were then washed three times 5 min at room temperature in PBS-BSA, and incubated for 1 hr with Cy3 (red fluorescence)-conjugated goat anti-mouse (1/1000, Amersham Pharmacia Biotech) secondary antibodies, diluted in PBS-BSA. After extensive washing in PBS, samples were air dried and mounted in Mowiol. Images were collected on a Leica confocal laser scanning microscope.

[4] = biological target: T4, THAP1-N2 deletion mutant (amino acids 1-166) (human, UniProt Q9NVV9 1-166); experiment: as above
T4 construct: Gal4 fusion, in vitro translation product or GFP fusion according to assay
T4 sequence: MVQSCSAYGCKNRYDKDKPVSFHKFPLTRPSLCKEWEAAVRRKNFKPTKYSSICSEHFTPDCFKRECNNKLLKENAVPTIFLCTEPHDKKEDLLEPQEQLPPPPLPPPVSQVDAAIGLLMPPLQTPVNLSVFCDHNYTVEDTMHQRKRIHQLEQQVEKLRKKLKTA
Text: as §1

B1: Par4 leucine zipper/death domain (Par4DD, amino acids 250-342) (other)
chain: GFPRYNRDANVSGTLVSSSTLEKKIEDLEKEVVTERQENLRLVRLMQDKEEMIGKLKEEIDLLNRDLDDIEDENEQLKQENKTLLKVVGQLTR
notes: Gal4 fusion in two-hybrid; also called myc-Par4DD
binding result [1]: binds | binding result [2]: no binding | binding result [3]: no binding | binding result [4]: no binding
